{
  "source": "paper PMC11685794",
  "about": "(Nature Communications, 2024)",
  "binders": {"B1": {"name": "hemoglobin (Hb) (complex)", "chain 1": "not shown", "chain 2": "not shown"}, "B2": {"name": "CD163 SRCR 1-5 (residues 42-578) (domain or fragment)", "chain": "SSLGGTDKELRLVDGENKCSGRVEVKVQEEWGTVCNNGWSMEAVSVICNQLGCPTAIKAPGWANSSAGSGRIWMDHVSCRGNESALWDCKHDGWGKHSNCTHQQDAGVTCSDGSNLEMRLTRGGNMCSGRIEIKFQGRWGTVCDDNFNIDHASVICRQLECGSAVSFSGSSNFGEGSGPIWFDDLICNGNESALWNCKHQGWGKHNCDHAEDAGVICSKGADLSLRLVDGVTECSGRLEVRFQGEWGTICDDGWDSYDAAVACKQLGCPTAVTAIGRVNASKGFGHIWLDSVSCQGHEPAIWQCKHHEWGKHYCNHNEDAGVTCSDGSDLELRLRGGGSRCAGTVEVEIQRLLGKVCDRGWGLKEADVVCRQLGCGSALKTSYQVYSKIQATNTWLFLSSCNGNETSLWDCKNWQWGGLTCDHYEEAKITCSAHREPRLVGGDIPCSGRVEVKHGDTWGSICDSDFSLEAASVLCRELQCGTVVSILGGAHFGEGNGQIWAEEFQCEGHESHLSLCPVAPRPEGTCSHSRDVGVVCS"}},
  "key": {"[1]": {"biological_target": "B2", "experiment": "SPR"}, "[2]": {"biological_target": "haptoglobin-hemoglobin complex, Hp(1-1)Hb (αβHb bound to dimeric Hp1-1) (human, UniProt P00738-2;P00738;P69905;P68871)", "experiment": "SPR"}},
  "data": [
    {"binder": "B1", "values": [
      {"measurement": "Kd", "setting": "[1]", "result": 43.8, "unit": "µM"}
    ]},
    {"binder": "B2", "values": [
      {"measurement": "Kd", "setting": "[2]", "result": 0.766, "unit": "µM"}
    ]}
  ]
}
